Experimental data published in paper PMC3869717, “The PCNA Interaction Protein Box Sequence in Rad54 Is an Integral Part of Its ATPase Domain and Is Required for Efficient DNA Repair and Recombination”.
Positions count from the first letter of the chain named.

Tests used:
Rad54 = molecular target: T1, Rad54 (Saccharomyces cerevisiae, UniProt P32863 1-898); experiment: EMSA (native PAGE); no ATP; Buffer D: 40 mM Tris-HCl pH 7.8, 50 mM KCl, 1 mM DTT, 100 µg/ml BSA, 30 °C, 10 min; plasmid 30 µM nucleotides with 31.25-1000 nM protein; 49-mer 3 nM with 12.5-200 nM protein; conditions: protein: recombinant; blunt
T1 sequence: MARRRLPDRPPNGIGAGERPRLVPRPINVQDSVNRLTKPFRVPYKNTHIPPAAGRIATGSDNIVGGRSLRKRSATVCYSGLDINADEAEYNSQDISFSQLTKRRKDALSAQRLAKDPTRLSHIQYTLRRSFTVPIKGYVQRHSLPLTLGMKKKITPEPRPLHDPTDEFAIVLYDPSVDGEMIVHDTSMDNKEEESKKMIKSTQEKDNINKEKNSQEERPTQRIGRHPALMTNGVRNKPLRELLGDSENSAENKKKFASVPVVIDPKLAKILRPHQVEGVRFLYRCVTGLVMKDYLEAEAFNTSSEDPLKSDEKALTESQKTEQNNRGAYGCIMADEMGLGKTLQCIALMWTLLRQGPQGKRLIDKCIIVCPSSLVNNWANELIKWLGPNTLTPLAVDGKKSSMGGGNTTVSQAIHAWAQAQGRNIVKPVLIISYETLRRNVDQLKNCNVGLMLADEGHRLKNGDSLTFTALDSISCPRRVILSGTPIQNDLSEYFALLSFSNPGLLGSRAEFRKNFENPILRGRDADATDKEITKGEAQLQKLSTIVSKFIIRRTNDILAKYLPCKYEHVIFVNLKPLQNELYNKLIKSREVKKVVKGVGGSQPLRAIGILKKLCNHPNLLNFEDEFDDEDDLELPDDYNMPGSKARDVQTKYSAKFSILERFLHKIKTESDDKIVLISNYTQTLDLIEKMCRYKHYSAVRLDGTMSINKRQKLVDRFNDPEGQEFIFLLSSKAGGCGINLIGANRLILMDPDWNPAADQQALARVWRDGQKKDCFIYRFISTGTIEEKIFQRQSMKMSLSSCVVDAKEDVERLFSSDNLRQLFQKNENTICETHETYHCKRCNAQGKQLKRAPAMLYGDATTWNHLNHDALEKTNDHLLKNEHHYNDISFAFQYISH

Rad54-AA = molecular target: T2, Rad54-AA (Saccharomyces cerevisiae, UniProt P32863 1-898, Y494A;F495A); experiment: EMSA (native PAGE); no ATP; equal to wild type; Buffer D: 40 mM Tris-HCl pH 7.8, 50 mM KCl, 1 mM DTT, 100 µg/ml BSA, 30 °C, 10 min; plasmid 30 µM nucleotides with 31.25-1000 nM protein; 49-mer 3 nM with 12.5-200 nM protein; conditions: protein: recombinant; blunt
T2 sequence: T1 sequence with Y494A, F495A

B1: dsDNA 49-mer (dsDNA)
DNA 1: AGCTACCATGCCTGCACGAATTAAGCAATTCGTAATCATGGTCATAGCT
DNA 2: AGCTATGACCATGATTACGAATTGCTTAATTCGTGCAGGCATGGTAGCT
binding result (Rad54): binds | binding result (Rad54-AA): binds
